These results are taken from patent US20200354425A1 (DONG-A ST CO., LTD., published 2020).

In assay [1] the target is T1, Human GLP-1 receptor (human, UniProt P43220).
Assay [2] addresses T2, Human glucagon receptor (human, UniProt P47871).
Assay [3] addresses T1, Human GLP-1 receptor. The assay is described as follows: cell-based or functional assay.
Assay [4] addresses T2, Human glucagon receptor. Nature of the assay: cell-based or functional assay.

Residue numbers refer to the chain shown, from its start. Read-outs that look alike come from different tables or passages of the source. *1 amine or outer side, *2 acyl side, *3 side chain or, on linkers, in order; H or OH if unused. Bridges are numbered along the chain shown (N, C = ends). Where no end group is shown, it is not given here. Side-chain parts run from the residue outwards. [ ]: non-standard residue; d: D form. The star is where a group is joined. γGlu = O=C(O)[C@H](CCC(=O)[*:2])N[*:1]; Stearoyl = CCCCCCCCCCCCCCCCCC(=O)*; AEEA = NCCOCCOCC(=O)O; Aib = CC(C)(N)C(=O)O

As to MEDI0382 (peptide), the EC50(pM), CRE-driven luciferase activity in the assay with Human GLP-1 receptor [1] was < 10 pM; in the assay with Human glucagon receptor [2], 10 to 100 pM.
As to H[Aib]QGTFTSDK([AEEA-AEEA-γGlu-Stearoyl])SKYLDKRRAEDFVQWLMNTK (linker 16-20 via 4‑carbonylpiperidin‑1‑yl) [Compound 32], the “EC50(pM), CRE-driven luciferase activity” value with Human GLP-1 receptor [3] and with Human glucagon receptor [4] was < 10 pM throughout.

B1: Compound 33 (peptide)
peptide: HXQGTFTSDXSKYLDERRAKDFVQWLMNTK
modifications: Aib at position 2; Z at position 10 = Lys([(2-(2-(2-aminoethoxy)ethoxy)acetoyl)2]-[gamma glutamicacid]-[octadecanoyl]); a ring formed between E and K (positions 16 and 20) via 1-aminocyclohexan-4-carbonyl cross-link
Turning to B1, the “EC50(pM), CRE-driven luciferase activity” value in the assay with Human GLP-1 receptor [3] and with Human glucagon receptor [4] was < 10 pM each time.
For H[Aib]QGTFTSDK([AEEA-AEEA-γGlu-Stearoyl])SKYLDKRRAEDFVQWLMNTK (lactam 16-20) [Compound 21], the “EC50(pM), CRE-driven luciferase activity” value with Human GLP-1 receptor [3] and with Human glucagon receptor [4] was < 10 pM throughout.

B2: Compound 3 (peptide)
peptide: B1 peptide with E16X, K20Q
modifications: Aib at positions 2 and 16; Z at position 10 = Lys([(2-(2-(2-aminoethoxy)ethoxy)acetoyl)2]-[gamma glutamicacid]-[octadecanoyl])
As to B2, the “EC50(pM), CRE-driven luciferase activity” value with Human GLP-1 receptor [3] and with Human glucagon receptor [4] was < 10 pM each time.
For H[Aib]QGTFTSDYSKYLDK([AEEA-AEEA-γGlu-Stearoyl])RRAQDFVQWLMNTK [Compound 15], the “EC50(pM), CRE-driven luciferase activity” value in the assay with Human GLP-1 receptor [3] and in the assay with Human glucagon receptor [4] was < 10 pM each time.

B3: Compound 34 (peptide)
peptide: B1 peptide
modifications: not fully specified; Aib at position 2; Z at position 10 = Lys([(2-(2-(2-aminoethoxy)ethoxy)acetoyl)2]-[gamma glutamicacid]-[octadecanoyl]); a ring formed between E and K (positions 16 and 20) via 4-aminobenzoyl cross-link
In the case of B3, the “EC50(pM), CRE-driven luciferase activity” value in the assay with Human GLP-1 receptor [3] and with Human glucagon receptor [4] was < 10 pM each time.

B4: Compound 36 (peptide)
peptide: B1 peptide
modifications: not fully specified; Aib at position 2; Z at position 10 = Lys([(2-(2-(2-aminoethoxy)ethoxy)acetoyl)2]-[gamma glutamicacid]-[octadecanoyl]); a ring formed between E and K (positions 16 and 20) via leucine cross-link
In the case of B4, the “EC50(pM), CRE-driven luciferase activity” value in the assay with Human GLP-1 receptor [3] and with Human glucagon receptor [4] was < 10 pM throughout.

B5: Compound 30 (peptide)
peptide: B1 peptide with K20E
modifications: Aib at position 2; Z at position 10 = Lys([(2-(2-(2-aminoethoxy)ethoxy)acetoyl)2]-[gamma glutamicacid]-[octadecanoyl]); a ring formed between E and E (positions 16 and 20) via 1,2-ethylenediamino cross-link
For B5, the “EC50(pM), CRE-driven luciferase activity” value with Human GLP-1 receptor [3] and with Human glucagon receptor [4] was < 10 pM each time.

B6: Compound 38 (peptide)
peptide: H-H[Aib]QGTFTSDK([AEEA-AEEA-γGlu-Stearoyl])SKYLDDRRAKDFVQWLMNTK-OH
modifications: bridge 16-20; not fully specified (bridges); printed as H-HAibQGTFTSDZSKYLDDRRAKDFVQWLMNTK-OH
Take B6: the “EC50(pM), CRE-driven luciferase activity” value with Human GLP-1 receptor [3] and in the assay with Human glucagon receptor [4] was < 10 pM throughout.

B7: Compound 25 (peptide)
peptide: B1 peptide
modifications: Aib at position 2; Z at position 10 = Lys([(2-(2-(2-aminoethoxy)ethoxy)acetoyl)4]-[gamma glutamicacid]-[octadecanoyl]); lactam ring formed between E and K (positions 16 and 20)
Take B7: the “EC50(pM), CRE-driven luciferase activity” value in the assay with Human GLP-1 receptor [3] and in the assay with Human glucagon receptor [4] was < 10 pM each time.

B8: Compound 17 (peptide)
peptide: B1 peptide with E16X, K20Q
modifications: Aib at positions 2 and 16; Z at position 10 = Lys([(2-(2-(2-aminoethoxy)ethoxy)acetoyl)]-[gamma glutamicacid]-[octadecanoyl])
B8: the “EC50(pM), CRE-driven luciferase activity” value in the assay with Human GLP-1 receptor [3] and in the assay with Human glucagon receptor [4] was < 10 pM each time.
Consider H[Aib]QGTFTSDK([AEEA-AEEA-γGlu-Stearoyl])SKYLDKRRADDFVQWLMNTK (lactam 16-20) [Compound 27], for which the “EC50(pM), CRE-driven luciferase activity” value with Human GLP-1 receptor [3] and in the assay with Human glucagon receptor [4] was < 10 pM throughout.

B9: Compound 29 (peptide)
peptide: B1 peptide with K20E
modifications: Aib at position 2; Z at position 10 = Lys([(2-(2-(2-aminoethoxy)ethoxy)acetoyl)2]-[gamma glutamicacid]-[octadecanoyl]); a ring formed between E and E (positions 16 and 20) via 1,4-phenylenediamino cross-link
In the case of B9, the “EC50(pM), CRE-driven luciferase activity” value with Human GLP-1 receptor [3] and with Human glucagon receptor [4] was < 10 pM each time.
On to H[Aib]QGTFTSDK([AEEA-AEEA-γGlu-Stearoyl])SKYLDCRRACDFVQWLMNTK (linker 16-20 via 1,3‑phenyhenedimethyl) [Compound 22], for which the “EC50(pM), CRE-driven luciferase activity” value with Human GLP-1 receptor [3] and in the assay with Human glucagon receptor [4] was < 10 pM each time.
Consider H[Aib]QGTFTSDK([AEEA-AEEA-γGlu-Stearoyl])SKYLDKRRAKDFVQWLMNTK (linker 16-20 via 1,4‑phenylenebiscarbconyl) [Compound 31], for which the “EC50(pM), CRE-driven luciferase activity” value with Human GLP-1 receptor [3] and with Human glucagon receptor [4] was < 10 pM each time.

B10: Compound 35 (peptide)
peptide: B1 peptide
modifications: not fully specified; Aib at position 2; Z at position 10 = Lys([(2-(2-(2-aminoethoxy)ethoxy)acetoyl)2]-[gamma glutamicacid]-[octadecanoyl]); a ring formed between E and K (positions 16 and 20) via glycine cross-link
For the molecule B10, the “EC50(pM), CRE-driven luciferase activity” value with Human GLP-1 receptor [3] and with Human glucagon receptor [4] was < 10 pM throughout.
Turning to H[Aib]QGTFTSDYSKYLD[Aib]RRAK([AEEA-AEEA-γGlu-Stearoyl])DFVQWLMNTK [Compound 16], the “EC50(pM), CRE-driven luciferase activity” value with Human GLP-1 receptor [3] and with Human glucagon receptor [4] was < 10 pM throughout.

B11: Compound 37 (peptide)
peptide: H-H[Aib]QGTFTSDK([AEEA-AEEA-γGlu-Stearoyl])SKYLDDRRAKDFVQWLMNTK-OH
modifications: bridge 16-20; not fully specified (bridges); printed as H-HAibQGTFTSDZSKYLDDRRAKDFVQWLMNTK-OH
As for B11, the “EC50(pM), CRE-driven luciferase activity” value in the assay with Human GLP-1 receptor [3] and in the assay with Human glucagon receptor [4] was < 10 pM each time.
Consider H[Aib]QGTFTSDK([AEEA-AEEA-γGlu-Stearoyl])SKYLDSRRAQDFVQWLMNTK [Compound 2], for which the “EC50(pM), CRE-driven luciferase activity” value in the assay with Human GLP-1 receptor [3] and in the assay with Human glucagon receptor [4] was < 10 pM in each case.
Turning to H[Aib]QGTFTSDK([AEEA-AEEA-γGlu-Stearoyl])SKYLDDRRAKDFVQWLMNTK (lactam 16-20) [Compound 26], the “EC50(pM), CRE-driven luciferase activity” value with Human GLP-1 receptor [3] and with Human glucagon receptor [4] was < 10 pM each time.

B12: Compound 19 (peptide)
peptide: B1 peptide
modifications: Aib at position 2; Z at position 10 = Lys([(2-(2-(2-aminoethoxy)ethoxy)acetoyl)2]-[gamma glutamicacid]-[octadecanoyl]); lactam ring formed between E and K (positions 16 and 20); C-terminal amide (-NH2)
For B12, the “EC50(pM), CRE-driven luciferase activity” value in the assay with Human GLP-1 receptor [3] and with Human glucagon receptor [4] was < 10 pM in each case.

B13: Compound 23 (peptide)
peptide: B1 peptide with K20E
modifications: Aib at position 2; Z at position 10 = Lys([(2-(2-(2-aminoethoxy)ethoxy)acetoyl)2]-[gamma glutamicacid]-[octadecanoyl]); a ring formed between E and E (positions 16 and 20) via 1,4-piperazinyl cross-link
Consider B13, for which the “EC50(pM), CRE-driven luciferase activity” value with Human GLP-1 receptor [3] and in the assay with Human glucagon receptor [4] was < 10 pM throughout.

B14: Compound 20 (peptide)
peptide: B1 peptide
modifications: Aib at position 2; Z at position 10 = Lys([(2-(2-(2-aminoethoxy)ethoxy)acetoyl)3]-[gamma glutamicacid]-[octadecanoyl]); lactam ring formed between E and K (positions 16 and 20)
For the molecule B14, the “EC50(pM), CRE-driven luciferase activity” value with Human GLP-1 receptor [3] and in the assay with Human glucagon receptor [4] was < 10 pM in each case.
